Results as given in publication PMC10681739, “High-throughput data and modeling reveal insights into the mechanisms of cooperative DNA-binding by transcription factor proteins”.

Each binder was assayed against RUNX1 (Homo sapiens, UniProt Q01196) (assay: gcPBM; 2 nM RUNX1). Conditions: tags: N-terminal GST (pDEST15), kept (PMC6008103); label: surface-attached array probe.
RUNX1, sequence (Q01196 whole entry): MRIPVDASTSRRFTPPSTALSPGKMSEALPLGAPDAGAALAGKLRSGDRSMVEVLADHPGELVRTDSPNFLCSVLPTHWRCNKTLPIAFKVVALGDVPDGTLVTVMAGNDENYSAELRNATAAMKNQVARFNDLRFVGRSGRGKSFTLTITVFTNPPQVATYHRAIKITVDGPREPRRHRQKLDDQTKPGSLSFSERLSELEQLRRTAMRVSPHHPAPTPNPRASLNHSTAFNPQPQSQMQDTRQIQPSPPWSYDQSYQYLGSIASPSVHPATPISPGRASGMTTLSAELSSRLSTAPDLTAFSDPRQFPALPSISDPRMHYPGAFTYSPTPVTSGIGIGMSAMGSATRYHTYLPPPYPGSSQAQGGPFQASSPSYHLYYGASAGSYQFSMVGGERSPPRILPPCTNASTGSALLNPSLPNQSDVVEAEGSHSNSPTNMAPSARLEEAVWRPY

Binder | binding signal
Table S3 C row 178 (dsDNA) DNA 1: TGGCTGCTACGTCGTCTTCCTGGGCGAAAGTGCCTG DNA 2: CAGGCACTTTCGCCCAGGAAGACGACGTAGCAGCCA | 726 PBM fluorescence, median of replicate spots
Table S3 C row 132 (dsDNA) DNA 1: GAGAGACCTGGGCCACTTCCGGGAGAACCCGAGCTT DNA 2: AAGCTCGGGTTCTCCCGGAAGTGGCCCAGGTCTCTC | 721 PBM fluorescence, median of replicate spots
Table S3 C row 75 (dsDNA) DNA 1: GGAGCTCACCTTCCAGTTCCGGGAGGCAGGCCGGCC DNA 2: GGCCGGCCTGCCTCCCGGAACTGGAAGGTGAGCTCC | 740 PBM fluorescence, median of replicate spots
Table S3 C row 174 (dsDNA) DNA 1: TTGCTCTGCGCATGGCGGAAAGGGTGCGCCGCCTGT DNA 2: ACAGGCGGCGCACCCTTTCCGCCATGCGCAGAGCAA | 735 PBM fluorescence, median of replicate spots
Table S3 C row 53 (dsDNA) DNA 1: GCTGGGACGCCAGACCTTCCGGGTTGCCCGGCCCCG DNA 2: CGGGGCCGGGCAACCCGGAAGGTCTGGCGTCCCAGC | 748 PBM fluorescence, median of replicate spots
Table S3 C row 36 (dsDNA) DNA 1: GGACGGCCTCTGAAGCTTCCGCGCCGACTTCTCCGA DNA 2: TCGGAGAAGTCGGCGCGGAAGCTTCAGAGGCCGTCC | 741 PBM fluorescence, median of replicate spots
Table S3 C row 138 (dsDNA) DNA 1: GGGGCCTGTTGTAGTTTTCCTGCATTCAAAGTACCC DNA 2: GGGTACTTTGAATGCAGGAAAACTACAACAGGCCCC | 732 PBM fluorescence, median of replicate spots
Table S3 C row 69 (dsDNA) DNA 1: TCCCCGAGCGTGCAGCTTCCGGTGAGGGCAGCCCCA DNA 2: TGGGGCTGCCCTCACCGGAAGCTGCACGCTCGGGGA | 735 PBM fluorescence, median of replicate spots
Table S3 C row 200 (dsDNA) DNA 1: GCCCCTCACAGCCTGCTTCCGGGAGCCGGGCAGGCC DNA 2: GGCCTGCCCGGCTCCCGGAAGCAGGCTGTGAGGGGC | 726 PBM fluorescence, median of replicate spots
Table S3 C row 87 (dsDNA) DNA 1: AGAGGAGGGGCCCGGCGGAAACTGCCGAGGTCTCCC DNA 2: GGGAGACCTCGGCAGTTTCCGCCGGGCCCCTCCTCT | 733 PBM fluorescence, median of replicate spots
Table S3 C row 107 (dsDNA) DNA 1: CTCGAGCCCGCTCGGCTTCCGTAGCCCCGCCCCATC DNA 2: GATGGGGCGGGGCTACGGAAGCCGAGCGGGCTCGAG | 743 PBM fluorescence, median of replicate spots
Table S3 C row 164 (dsDNA) DNA 1: GGGCTGGGTGGAGACAGGAAGCTTCAGAGCCACTCC DNA 2: GGAGTGGCTCTGAAGCTTCCTGTCTCCACCCAGCCC | 735 PBM fluorescence, median of replicate spots
Table S3 C row 180 (dsDNA) DNA 1: CTGTGCAGCGTCCTCCTTCCGGGTGCAGGCGGGCCT DNA 2: AGGCCCGCCTGCACCCGGAAGGAGGACGCTGCACAG | 722 PBM fluorescence, median of replicate spots
Table S3 C row 9 (dsDNA) DNA 1: CGTGACGCAGGGAAAGTTCCGGCTTCGGCCTCCGCC DNA 2: GGCGGAGGCCGAAGCCGGAACTTTCCCTGCGTCACG | 736 PBM fluorescence, median of replicate spots
Table S3 C row 179 (dsDNA) DNA 1: CACAAGCGAAACATTCGGAAGCAATTTACTTGCAGC DNA 2: GCTGCAAGTAAATTGCTTCCGAATGTTTCGCTTGTG | 751 PBM fluorescence, median of replicate spots
Table S3 C row 172 (dsDNA) DNA 1: TGGCTGAGACTGAGACGGAAGGATCCTTGCGCCCAG DNA 2: CTGGGCGCAAGGATCCTTCCGTCTCAGTCTCAGCCA | 723 PBM fluorescence, median of replicate spots

Binder | binding signal
Table S3 C row 173 (dsDNA) DNA 1: CGCTATCGGGGCAGCAGGAAGTCGCCATCTTGAATC DNA 2: GATTCAAGATGGCGACTTCCTGCTGCCCCGATAGCG | 725 PBM fluorescence, median of replicate spots
Table S3 C row 122 (dsDNA) DNA 1: ACCCTGAAGCCTCGCCGGAACTCGCGTCTGGGGCCA DNA 2: TGGCCCCAGACGCGAGTTCCGGCGAGGCTTCAGGGT | 728 PBM fluorescence, median of replicate spots
Table S3 C row 176 (dsDNA) DNA 1: GCCGCCATGGGGCGCTATCCGGCCCCAGCCGGGACC DNA 2: GGTCCCGGCTGGGGCCGGATAGCGCCCCATGGCGGC | 729 PBM fluorescence, median of replicate spots
Table S3 C row 62 (dsDNA) DNA 1: GGGAGAAGCGGGAGGCGGAACGCCCGAGGGCGCCCT DNA 2: AGGGCGCCCTCGGGCGTTCCGCCTCCCGCTTCTCCC | 722 PBM fluorescence, median of replicate spots
Table S3 C row 188 (dsDNA) DNA 1: GCAAGCGGGCCTGGGCGGATGTCTCGGGCGCGTCGG DNA 2: CCGACGCGCCCGAGACATCCGCCCAGGCCCGCTTGC | 720 PBM fluorescence, median of replicate spots
Table S3 C row 72 (dsDNA) DNA 1: CCCCGTCCACGGCCCCGGAAGCTGACGTCGCCGAAG DNA 2: CTTCGGCGACGTCAGCTTCCGGGGCCGTGGACGGGG | 733 PBM fluorescence, median of replicate spots
Table S3 C row 81 (dsDNA) DNA 1: GGCCCATTGTCCGCGCTTCCGTTCAGGCTCCGCCTC DNA 2: GAGGCGGAGCCTGAACGGAAGCGCGGACAATGGGCC | 725 PBM fluorescence, median of replicate spots
Table S3 C row 161 (dsDNA) DNA 1: CTATCCCAGGCCTCGCTTCCGGTGACATCATGTCTC DNA 2: GAGACATGATGTCACCGGAAGCGAGGCCTGGGATAG | 749 PBM fluorescence, median of replicate spots
Table S3 C row 26 (dsDNA) DNA 1: GACACTGGAGGGAGCCGGAAGTACCTCGGAGTTTTA DNA 2: TAAAACTCCGAGGTACTTCCGGCTCCCTCCAGTGTC | 723 PBM fluorescence, median of replicate spots
Table S3 C row 144 (dsDNA) DNA 1: GTTTAAGCTCAGCGCCTTCCTGGTTCTAGCGCCAGG DNA 2: CCTGGCGCTAGAACCAGGAAGGCGCTGAGCTTAAAC | 729 PBM fluorescence, median of replicate spots
Table S3 C row 170 (dsDNA) DNA 1: ACCGGCGCGCACACGCTTCCGTGCTACGAGGCACTT DNA 2: AAGTGCCTCGTAGCACGGAAGCGTGTGCGCGCCGGT | 726 PBM fluorescence, median of replicate spots
Table S3 C row 82 (dsDNA) DNA 1: TGATGGGGATCGGTCCGGATGTACTTCAACATCTTT DNA 2: AAAGATGTTGAAGTACATCCGGACCGATCCCCATCA | 747 PBM fluorescence, median of replicate spots
Table S3 C row 22 (dsDNA) DNA 1: CCGGATTGCCTTCACAGGAAGGGAAAGTCACTCCGG DNA 2: CCGGAGTGACTTTCCCTTCCTGTGAAGGCAATCCGG | 737 PBM fluorescence, median of replicate spots
Table S3 C row 192 (dsDNA) DNA 1: CCGCGCAAGCCCCGACATCCGGTTGGCCGGCGTGGG DNA 2: CCCACGCCGGCCAACCGGATGTCGGGGCTTGCGCGG | 751 PBM fluorescence, median of replicate spots
Table S3 C row 166 (dsDNA) DNA 1: ACCCCGGGTCGGAGTGTTCCGGCCCGGCCAGCCCCG DNA 2: CGGGGCTGGCCGGGCCGGAACACTCCGACCCGGGGT | 724 PBM fluorescence, median of replicate spots
Table S3 C row 52 (dsDNA) DNA 1: TTTCGCCGACCCCGCCGGAAGACCAGGCCGGCGCGG DNA 2: CCGCGCCGGCCTGGTCTTCCGGCGGGGTCGGCGAAA | 732 PBM fluorescence, median of replicate spots
